This note sets out measurements from publication PMC9355956.

In general, Km refers to the concentration of substrate that gives half-maximal velocity.

In the data set the test system is CC(C)C[C@H](NC(=O)[C@H](CCC(N)=O)NC(=O)[C@H](CCCCN)NC(=O)[C@H](CCCNC(=N)N)NC(=O)[C@@H]1CCCN1C(=O)[C@H](C)NC(=O)[C@H](CCCCN)NC(=O)CNC(=O)CNC(=O)[C@@H](NC(=O)[C@H](CO)NC(=O)[C@H](CCCCN)NC(=O)[C@H](CCCNC(=N)N)NC(=O)[C@H](C)NC(=O)[C@@H](NC(=O)[C@H](CCC(N)=O)NC(=O)[C@H](CCCCN(C)C)NC(=O)[C@@H](NC(=O)[C@H](CCCNC(=N)N)NC(=O)[C@H](C)N)[C@@H](C)O)[C@@H](C)O)[C@@H](C)O)C(=O)N[C@@H](C)C(=O)O. Kind of data set: purified protein, by the assay type. The note with it: other: substrate, 20 nM LSD1.

Procedure: The activity of hSMOX, hPAOX, and LSD1 enzymes was measured using the HyPerBlu chemiluminescent reagent for the direct detection of the hydrogen peroxide product. […] Hydrogen peroxide product formation was monitored 30 min after the addition of HyPerBlu on a PHERAstar microplate reader (BMG LABTECH, Cary, NC). All compounds were spotted into the assay plates using Echo acoustic dispensing technology (BeckmanCoulter, Indianapolis, IN). Unless otherwise stated, all reactions were carried out in 384-well assay format.
2 µL/well of 2x substrate was dispensed into the assay plate followed by 2 µL/well of 2x enzyme to initiate the reactions. […] The data were fit to the 4-parameter IC50 equation in GraphPad Prism.
Briefly, 2.5 µL/well of the twofold substrate solutions prepared in buffer was added to the assay wells followed by 2.5 µL/well of the 2x enzyme to initiate the reactions.
The initial velocity data were fit to the Michaelis-Menten equation in GraphPad Prism. Y=Vmax*X/(Km+X) where Vmax is the maximal velocity, X is the substrate concentration and Km is the Michaelis-Menten constant. The kcat value was determined by dividing Vmax value by the enzyme concentration.

In the case of LSD1 (Homo sapiens), the Km was determined as 3.8 ± 0.35 µM.
